The values below come from patent publication US20210340249A1, “MUSCARINIC ACETYLCHOLINE RECEPTOR BINDING AGENTS AND USES THEREOF” (VIB VZW, priority 2013, published 2021).

“Also recorded” adds a separate entry of the source.

The term EC50 denotes the concentration needed to bring the measured effect to its halfway point.

This experiment concerns the target T1, human M2 muscarinic receptor (Homo sapiens, UniProt P08172, DEL233-374/N2D/N3D/N6D/N9D).
T1 construct: FLAG (N); 8xHis (C); made in house; host or cells: Sf9 insect cells, BestBac baculovirus system
T1 sequence (P08172 with tags, fused parts or gaps N2D/N3D/N6D/N9D/DEL233-374): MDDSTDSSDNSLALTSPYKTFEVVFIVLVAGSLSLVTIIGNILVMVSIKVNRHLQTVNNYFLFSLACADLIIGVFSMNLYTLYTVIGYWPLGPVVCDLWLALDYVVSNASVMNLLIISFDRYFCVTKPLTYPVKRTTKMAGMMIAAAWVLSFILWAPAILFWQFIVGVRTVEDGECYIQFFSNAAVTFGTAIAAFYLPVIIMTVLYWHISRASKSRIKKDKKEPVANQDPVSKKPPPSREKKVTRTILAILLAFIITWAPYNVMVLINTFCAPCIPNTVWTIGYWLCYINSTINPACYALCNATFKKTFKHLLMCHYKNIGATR
Kind of experiment: M2 receptor radioligand binding assay (3H N-methyl scopolamine, receptor reconstituted into HDL particles). Conditions: for enhancement of M2 receptor affinity for the agonist iperoxo: competition binding assay, iperoxo vs 3H N-methyl scopolamine, compared with G protein Gi. An excerpt: M2 muscarinic receptor expression and purification. The human M2 muscarinic receptor gene was modified to remove glycosylation sites, and to add an amino-terminal FLAG tag and a carboxy-terminal 8×His tag. In addition, residues 233-374 of intracellular loop 3 were deleted. […] Human M2 muscarinic receptor bearing an amino-terminal FLAG epitope tag and carboxy-terminal 8×His tag was expressed in Sf9 cells using the BestBac baculovirus system (Expression Systems; Davis, Calif.). Cells were infected at a density of 4×10^6 cells/mL, then incubated for two days at 27° C. Receptor was extracted and purified in the manner described previously for the M3 muscarinic receptor (Kruse et al., 2012). Briefly, receptor was first purified by Ni-NTA chromatography, FLAG affinity chromatography, then size exclusion chromatography. 1 μM atropine was included in all buffers. Receptor was then labeled with a 5-fold molar excess of biotin-NHS ester (Sigma-Aldrich; St. Louis, Mo.) in buffer containing 25 mM HEPES pH 7.2. Following a 30 minute incubation at room temperature and a 30 minute incubation on ice, unreacted label was quenched with 50 mM Tris pH 8. Directly labeled samples with fluorophore-NHS esters were prepared similarly. Receptor was then desalted into buffer containing either 10 μM tiotropium, 10 μM iperoxo, or buffer containing no ligand. Receptor eluted in buffer containing no ligand was treated with 50 μM iperoxo mustard (derivative of iperoxo that allows covalent binding to M2 receptor) for 20 minutes at room temperature. Samples were then concentrated, aliquoted, and flash frozen with 20% (v/v) glycerol.
M2 receptor radioligand binding assays. M2 receptor was expressed and purified, as described above. Receptor was then reconstituted into HDL particles consisting of apolipoprotein A1 and a 3:2 (mol:mol) mixture of the lipids POPC:POPG (1-palmitoyl-2-oleoyl-sn-glycero-3-phosphocholine: 1-palmitoyl-2-oleoyl-sn-glycero-3-phosphocholine and 1-hexadecanoyl-2-(9Z-octadecenoyl)-sn-glycero-3-phospho-(r-rac-glycerol), respectively, Avanti Polar Lipids). Binding reactions contained 50 fmol functional receptor, 0.6 nM 3H N-methyl scopolamine (NMS), 100 mM NaCl, 20 mM HEPES pH 7.5, 0.1% BSA, and ligands and nanobodies as indicated. Single point allosteric effects of nanobodies were measured in the presence of 10 nM iperoxo. Concentration-dependent effects of nanobodies were measured in the presence of 10 nM iperoxo. All reactions were 500 μL in volume. Reactions were mixed and then incubated for two hours. Samples were then filtered on a 48-well harvester (Brandel) onto a filter which had been pretreated with 0.1% polyethylenimine. All measurements were taken by liquid scintillation counting, and experiments were performed at least in triplicate.
To determine whether the Nanobody variants that specifically stain agonist-bound M2 receptor are able to stabilize the M2 receptor active state, a binding assay was performed. Due to the allosteric properties of GPCRs, molecules that stabilize the active conformation of a receptor also increase agonist affinity. Several conformationally specific binders were isolated and were tested for their ability to induce an increase in the affinity of the non-covalent agonist iperoxo.

B1: Nb9-1: Nanobody SEQ ID NO:2; M2 Gi mimetic (protein, listed as Lama glama)
VHH: QVQLQESGGGLVQAGGSLRLSCAASGHTFSSARMYWVRQAPGKEREFVAAISRSGFTYSADSVKGRFTISRDIANNTVYLQMNSLQPEDTAIYTCYAAYLDEFYNDYTHYWGLGTQVTVSS
B1: the “enhancement of M2 receptor affinity for the agonist iperoxo” value (“enhancement of M2 receptor affinity” for short) is “confirmed to enhance agonist affinity”.

B2: clone B4: Nanobody SEQ ID NO:16; functional extracellular M2 nanobody ligand (protein, listed as Lama glama)
VHH: QVQLQESGGGLVQAGGSLRLSCAASGRTFSNYAMSWFRQAPGKERGLVATIYRSGEGTYYLPSAKGRFTVSRDNAKNTAYLQMNSLKAEDTAVYYCAVMSRGTWSMWGQGTQVTVSS
Take B2: the “effect on binding of the radioligand N-methylscopolamine (allosteric binding properties)” value (single point, with and without agonist (10 nM iperoxo)) is “decrease in the binding of the radioligand N-methylscopolamine only in the presence of agonist”.

B3: Nb9-20: Nanobody SEQ ID NO:11; M2 Gi mimetic (protein, listed as Lama glama)
VHH: QVQLQESGGGLVQPEGSLTLACDTSGFTMNYYAIAWFRQAPEKEREGLATISSIDGRTYYADSVKGRFTISRDSAKNMVYLQMNNLRPEDTAVYYCSAGPDYSDYGDESEYWGQGTQVTVSS
B3: the “enhancement of M2 receptor affinity” value is on record as “confirmed to enhance agonist affinity”.

B4: Nb9-8: Nanobody SEQ ID NO:1; M2 Gi mimetic, active-state stabilizing, binds intracellular surface of M2 receptor (protein, listed as Lama glama)
VHH: QVQLQESGGGLVQAGDSLRLSCAASGFDFDNFDDYAIGWFRQAPGQEREGVSCIDPSDGSTIYADSAKGRFTISSDNAENTVYLQMNSLKPEDTAVYVCSAWTLFHSDEYWGQGTQVTVSS
Regarding B4, the “enhancement of M2 receptor affinity” value is listed as “confirmed to enhance agonist affinity; also recorded: enhanced the affinity of the M2 receptor for iperoxo to almost the same extent as that observed in the presence of the heterotrimeric G protein Gi; also recorded: substantial enhancement of iperoxo affinity”. In addition, for the setting “concentration-dependent effect of nanobody in the presence of 10 nM iperoxo, 0.6 nM 3H N-methyl scopolamine, read-out: EC50 of nanobody effect on agonist ability to displace a radioactive probe”, the concentration for a half-maximal effect (EC50) is approximately 100 nM. Besides, the “dose-dependent effect on agonist ability to displace a radioactive probe” value (in the presence of 10 nM iperoxo, 3H N-methyl scopolamine) is reported as “dose-dependent effect”.
